Measured values published in patent US20160002326A1 (AbbVie / Abbott, published 2016).

Key:
[1] = molecular target: T1, Fcγ RIIb (UniProt P31994 46-217, limits assumed); experiment: Biacore
T1 sequence (looked up): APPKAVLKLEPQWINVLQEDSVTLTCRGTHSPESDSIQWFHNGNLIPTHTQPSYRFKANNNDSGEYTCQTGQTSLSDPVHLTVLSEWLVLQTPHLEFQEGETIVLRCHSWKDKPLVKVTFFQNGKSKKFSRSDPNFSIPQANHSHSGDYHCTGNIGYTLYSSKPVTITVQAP

[2] = molecular target: T2, Fcγ RIIIa, variant 158F (UniProt P08637 17-208); experiment: Biacore
T2 construct: also called FcγRIIIa 158F
T2 sequence (P08637 17-208 limits assumed, change not shown): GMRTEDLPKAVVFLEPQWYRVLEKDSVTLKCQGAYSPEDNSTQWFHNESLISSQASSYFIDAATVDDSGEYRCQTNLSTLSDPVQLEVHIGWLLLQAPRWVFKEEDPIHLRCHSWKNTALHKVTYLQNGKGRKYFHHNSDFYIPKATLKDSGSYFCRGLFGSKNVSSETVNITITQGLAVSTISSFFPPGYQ

[3] = molecular target: T3, Fcγ RI (UniProt P12314 16-288, limits assumed); experiment: Biacore
T3 construct: also called FcγR1
T3 sequence (P12314 16-288 limits assumed): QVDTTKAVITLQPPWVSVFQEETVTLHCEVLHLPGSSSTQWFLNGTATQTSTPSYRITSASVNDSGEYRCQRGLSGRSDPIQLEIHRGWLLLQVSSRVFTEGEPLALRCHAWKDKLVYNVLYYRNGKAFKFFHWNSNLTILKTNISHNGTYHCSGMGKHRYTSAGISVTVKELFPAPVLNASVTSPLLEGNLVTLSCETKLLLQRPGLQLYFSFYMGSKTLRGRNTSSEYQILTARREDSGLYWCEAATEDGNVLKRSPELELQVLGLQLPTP

[4] = molecular target: T4, Fcγ RIIa, variant 131R (UniProt P12318 36-218, limits assumed); experiment: Biacore
T4 construct: also called FcγRIIa 131R
T4 sequence (looked up): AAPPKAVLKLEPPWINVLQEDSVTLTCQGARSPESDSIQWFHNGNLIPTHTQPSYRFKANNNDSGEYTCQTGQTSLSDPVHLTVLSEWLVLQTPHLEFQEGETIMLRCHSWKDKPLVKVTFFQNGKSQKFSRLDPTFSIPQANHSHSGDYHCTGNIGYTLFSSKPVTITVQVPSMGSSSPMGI

[5] = molecular target: T5, lymphotoxin a (UniProt P01374 35-205); experiment: direct ELISA
T5 construct: also called lymphotoxin alpha
T5 sequence (looked up): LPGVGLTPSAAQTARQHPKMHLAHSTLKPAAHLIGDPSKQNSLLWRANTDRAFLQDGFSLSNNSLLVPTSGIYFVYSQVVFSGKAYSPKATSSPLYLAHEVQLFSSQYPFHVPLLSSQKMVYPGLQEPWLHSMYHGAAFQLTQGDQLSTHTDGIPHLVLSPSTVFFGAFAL

[6] = molecular target: T6, OX40 ligand (UniProt P23510 51-183); experiment: direct ELISA
T6 sequence (looked up): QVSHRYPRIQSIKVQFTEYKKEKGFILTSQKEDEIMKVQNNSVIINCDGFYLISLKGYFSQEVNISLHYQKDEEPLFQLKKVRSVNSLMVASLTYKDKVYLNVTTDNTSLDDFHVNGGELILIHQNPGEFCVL

[7] = molecular target: 4-1BB ligand (UniProt P41273 71-254, limits assumed); experiment: direct ELISA
Sequence of 4-1BB ligand (P41273 71-254 limits assumed): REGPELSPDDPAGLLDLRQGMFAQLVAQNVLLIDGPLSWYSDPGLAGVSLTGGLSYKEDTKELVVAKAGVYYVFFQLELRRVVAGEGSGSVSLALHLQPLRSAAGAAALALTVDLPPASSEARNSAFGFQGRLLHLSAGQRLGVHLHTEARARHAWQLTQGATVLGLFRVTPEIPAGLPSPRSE

[8] = molecular target: T7, Fas ligand (UniProt P48023 134-281, limits assumed); experiment: direct ELISA
T7 sequence (looked up): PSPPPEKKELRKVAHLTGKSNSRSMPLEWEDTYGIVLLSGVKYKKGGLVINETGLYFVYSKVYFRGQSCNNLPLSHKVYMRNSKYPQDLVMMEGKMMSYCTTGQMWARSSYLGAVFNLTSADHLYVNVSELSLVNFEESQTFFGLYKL

[9] = molecular target: T8, IL-17B (UniProt Q9UHF5 21-180); experiment: direct ELISA
T8 sequence (looked up): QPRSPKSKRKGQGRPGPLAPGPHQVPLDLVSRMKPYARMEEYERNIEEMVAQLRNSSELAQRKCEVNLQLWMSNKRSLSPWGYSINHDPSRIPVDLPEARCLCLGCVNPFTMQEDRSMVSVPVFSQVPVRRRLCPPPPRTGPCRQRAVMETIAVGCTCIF

[10] = molecular target: T9, APRIL (UniProt O75888 105-250); experiment: direct ELISA
T9 sequence (looked up): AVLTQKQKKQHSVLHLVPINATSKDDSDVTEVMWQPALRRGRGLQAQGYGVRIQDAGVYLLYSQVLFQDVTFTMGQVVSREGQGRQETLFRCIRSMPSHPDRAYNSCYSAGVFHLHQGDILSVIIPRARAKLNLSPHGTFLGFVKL

[11] = molecular target: LIGHT (UniProt O43557 74-240, limits assumed); experiment: direct ELISA
Sequence of LIGHT (O43557 74-240 limits assumed): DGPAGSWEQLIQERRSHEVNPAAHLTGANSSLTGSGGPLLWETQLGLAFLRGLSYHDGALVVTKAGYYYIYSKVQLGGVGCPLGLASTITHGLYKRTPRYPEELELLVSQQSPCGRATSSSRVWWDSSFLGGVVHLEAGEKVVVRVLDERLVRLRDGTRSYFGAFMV

[12] = molecular target: T10, IL-17D (UniProt Q8TAD2 16-202, limits assumed); experiment: direct ELISA
T10 sequence (looked up): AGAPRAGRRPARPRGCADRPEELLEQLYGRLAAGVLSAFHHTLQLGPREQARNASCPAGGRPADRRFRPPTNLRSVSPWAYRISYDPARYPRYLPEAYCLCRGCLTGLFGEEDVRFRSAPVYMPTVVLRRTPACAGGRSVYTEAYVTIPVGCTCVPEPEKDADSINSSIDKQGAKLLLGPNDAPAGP

[13] = molecular target: T11, CD40 ligand (UniProt P29965 113-261, limits assumed); experiment: direct ELISA
T11 sequence (looked up): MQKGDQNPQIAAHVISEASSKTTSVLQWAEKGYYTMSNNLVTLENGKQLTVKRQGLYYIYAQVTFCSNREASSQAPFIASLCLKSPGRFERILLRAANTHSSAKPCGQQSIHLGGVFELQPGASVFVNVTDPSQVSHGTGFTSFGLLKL

[14] = molecular target: T12, EDA-A2 (UniProt Q92838-3 245-389, limits assumed); experiment: direct ELISA
T12 sequence (looked up): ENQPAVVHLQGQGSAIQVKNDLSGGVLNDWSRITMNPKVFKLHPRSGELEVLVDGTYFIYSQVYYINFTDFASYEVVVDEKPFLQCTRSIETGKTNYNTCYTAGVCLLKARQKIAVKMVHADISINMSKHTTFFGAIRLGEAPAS

[15] = molecular target: T13, CD30 ligand (UniProt P32971 63-234); experiment: direct ELISA
T13 sequence (looked up): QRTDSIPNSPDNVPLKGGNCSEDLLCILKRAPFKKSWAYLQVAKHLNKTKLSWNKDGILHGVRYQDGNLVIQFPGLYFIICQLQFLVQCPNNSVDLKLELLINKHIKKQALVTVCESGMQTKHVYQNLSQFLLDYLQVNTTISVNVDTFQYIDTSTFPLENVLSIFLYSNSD

[16] = molecular target: T14, TWEAK (UniProt O43508 94-249, limits assumed); experiment: direct ELISA
T14 sequence (looked up): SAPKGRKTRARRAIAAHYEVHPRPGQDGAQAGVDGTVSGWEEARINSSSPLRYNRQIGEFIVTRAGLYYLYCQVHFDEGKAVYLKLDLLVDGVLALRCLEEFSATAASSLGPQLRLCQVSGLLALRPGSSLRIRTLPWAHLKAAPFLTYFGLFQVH

Measured: binding result

B1: ABBV-257 anti-human TNF and IL-17 DVD-Ig binding protein (bispecific antibody, human IgG1, kappa, L234A L235A)
heavy: EVQLVQSGAEVKKPGASVKVSCKASGYTFANYGIIWVRQAPGQGLEWMGWINTYTGKPTYAQKFQGRVTMTTDTSTSTAYMELSSLRSEDTAVYYCARKLFTTMDVTDNAMDYWGQGTTVTVSSGGGGSGGGGSEVQLVQSGAEVKKPGSSVKVSCKASGYTFTDYEIHWVRQAPGQGLEWMGVNDPESGGTFYNQKFDGRVTLTADESTSTAYMELSSLRSEDTAVYYCTRYSKWDSFDGMDYWGQGTTVTVSSASTKGPSVFPLAPSSKSTSGGTAALGCLVKDYFPEPVTVSWNSGALTSGVHTFPAVLQSSGLYSLSSVVTVPSSSLGTQTYICNVNHKPSNTKVDKKVEPKSCDKTHTCPPCPAPEAAGGPSVFLFPPKPKDQLMISRTPEVTCVVVDVSHEDPEVKFNWYVDGVEVHNAKTKPREEQYNSTYRVVSVLTVLHQDWLNGKEYKCKVSNKALPAPIEKTISKAKGQPREPQVYTLPPSREEMTKNQVSLTCLVKGFYPSDIAVEWESNGQPENNYKTTPPVLDSDGSFFLYSKLTVDKSRWQQGNVFSCSVLHEALHNHYTQKSLSLSPGK
light: DIQMTQSPSSLSASVGDRVTITCRASQDISQYLNWYQQKPGKAPKLLIYYTSRLQSGVPSRFSGSGSGTDFTLTISSLQPEDFATYFCQQGNTWPPTFGQGTKLEIKRGGSGGGGSGDIQMTQSPSSLSASVGDRVTITCRASSGIISYIDWFQQKPGKAPKRLIYATFDLASGVPSRFSGSGSGTDYTLTISSLQPEDFATYYCRQVGSYPETFGQGTKLEIKRTVAAPSVFIFPPSDEQLKSGTASVVCLLNNFYPREAKVQWKVDNALQSGNSQESVTEQDSKDSTYSLSSTLTLSKADYEKHKVYACEVTHQGLSSPVTKSFNRGEC
modifications: N-linked glycans on the heavy chain at the asparagine commonly modified on IgG1 antibodies (fucosylated biantennary oligosaccharides with 0, 1 or 2 galactose residues)
notes: It says the constant region carries L234A, L235A and also T250Q and M428L; also called Anti-IL-17/TNF DVD-Ig Protein
no binding: all assays above
